Ka data for one molecule are collected here from publication PMC3859839.

Read-outs that look alike come from different tables or passages of the source.

Targets include PsaR H76A (Streptococcus pneumoniae D39, UniProt A0A0H2ZQ59 1-216, H76A); PsaR D160A (Streptococcus pneumoniae D39, UniProt A0A0H2ZQ59 1-216, D160A); PsaR H76F (Streptococcus pneumoniae D39, UniProt A0A0H2ZQ59 1-216, H76F); PsaR H125A (Streptococcus pneumoniae D39, UniProt A0A0H2ZQ59 1-216, H125A); PsaR D7A (Streptococcus pneumoniae D39, UniProt A0A0H2ZQ59 1-216, D7A); PsaR E99A (Streptococcus pneumoniae D39, UniProt A0A0H2ZQ59 1-216, E99A).

What all share (assay): fluorescence anisotropy
The target in data set [1] is T1, PsaR wild-type (Streptococcus pneumoniae D39, UniProt A0A0H2ZQ59 1-216).
In data set [2] the target is T1, PsaR wild-type. This is another data set of the same source.
The target of data set [3] is T1, PsaR wild-type. This is another data set of the same source.

B1: PsaO (psaBCA operator) (dsDNA)
DNA 1: TTCAAAAATTAACTTGACTTAATTTTTTTT
DNA 2: AAAAAAAATTAAGTCAAGTTAATTTTTGAA
Take B1: the Ka with PsaR H76A is 9.6 ± 0.1 log10 M-1; with PsaR D160A, 9.8 ± 0.1 log10 M-1; in the data set with PsaR H76F, 8.54 ± 0.06 log10 M-1; in the data set with PsaR wild-type [1], 10.6 ± 0.1 log10 M-1; with PsaR H125A, 10.4 ± 0.1 log10 M-1; with PsaR D7A it was 7.22 ± 0.03 log10 M-1. The Ka with PsaR E99A is 9.27 ± 0.05 log10 M-1; in the data set with PsaR wild-type [2], 10.1 ± 0.1 log10 M-1; with PsaR wild-type [3], 8.02 ± 0.03 log10 M-1.
